Reference: PMC3793935
The star is where a group is joined. NH(3-CONH2-4-NO2-Ph) = NC(=O)c1cc(N*)ccc1[N+](=O)[O-]

Molecular target: T1, GS-SplD, recombinant SplD protease containing the Gly-Ser dipeptide at the N-terminus (Staphylococcus aureus strain 8325-4) (UniProt Q2FXC5)
T1 sequence: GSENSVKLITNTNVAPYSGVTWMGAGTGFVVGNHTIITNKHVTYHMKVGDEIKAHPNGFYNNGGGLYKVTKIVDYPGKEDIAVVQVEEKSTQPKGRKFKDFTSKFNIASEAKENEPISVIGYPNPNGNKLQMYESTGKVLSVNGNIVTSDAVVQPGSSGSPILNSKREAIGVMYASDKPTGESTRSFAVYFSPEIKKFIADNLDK

Binder	Km of hydrolysis of the fluorescence-quenched peptide substrate by wild type SplD [µM]
{ABZ}-WLTS-{NH(3-CONH2-4-NO2-Ph)-NH2} [ABZ-Trp-Leu-Thr-Ser-ANB-NH2]	14.7
{ABZ}-WLVS-{NH(3-CONH2-4-NO2-Ph)-NH2} [ABZ-Trp-Leu-Val-Ser-ANB-NH2]	31.1
